According to the supplement of paper PMC9732359:
± gives the uncertainty stated by the source.

Test: protein stability index of a GFP-peptide fusion (yeast GPS) (PSI 1-4); higher = more stable; sorted into four equal gates, so the index is relative within each strain
How it was run: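 Each library plasmid carries Cherry plus GFP with a tiled 17-residue yeast protein peptide fused downstream, and the pooled library was carried in yeast. Mid-log cultures in leucine-free medium were sorted into four equal gates by GFP/Cherry ratio. Reads from Illumina sequencing of PCR-amplified plasmids from each gate were assigned to strains by barcodes. Per peptide, the protein stability index was computed as the summed products of gate read frequency and gate number.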

PEETPLEELAETFQDTF [FAS2]
protein stability index (doa10∆): 3.11 ± 0.056
protein stability index (pdr5∆): 2.96 ± 0.062
protein stability index (san1∆): 3.12 ± 0.048
protein stability index (ubr1∆): 3.32 ± 0.059

NILIASLMDTLITPAVR [YCG1]
protein stability index (doa10∆): 1.41 ± 0.063
protein stability index (pdr5∆): 1.91 ± 0.073
protein stability index (san1∆): 1.58 ± 0.13
protein stability index (ubr1∆): 1.78 ± 0.055

VNTMGTGGQTIDNGTGR [MED6]
protein stability index (doa10∆): 3.27 ± 0.14
protein stability index (pdr5∆): 3.06 ± 0.24
protein stability index (san1∆): 3.19 ± 0.077
protein stability index (ubr1∆): 3.19 ± 0.073

NEDQFLEEITQYEHLIK [YDL116W/NUP84]
protein stability index (pdr5∆): 3.02 ± 0.27

PQGSTTNGGLFGSGTQN [YGR119C/NUP57]
protein stability index (doa10∆): 3.12 ± 0.073
protein stability index (pdr5∆): 3.27 ± 0.058
protein stability index (san1∆): 3.3 ± 0.042
protein stability index (ubr1∆): 3.015 ± 0.029

ENELFNDRKQTTVSNDL [SSN2]
protein stability index (doa10∆): 2.74 ± 0.16
protein stability index (pdr5∆): 3.14 ± 0.079
protein stability index (san1∆): 3.11 ± 0.06
protein stability index (ubr1∆): 3.02 ± 0.081

YVFNARPDGVHVINVGK [RPS0A]
protein stability index (pdr5∆): 2.78 ± 0.24
protein stability index (ubr1∆): 2.55 ± 0.11

LATYCPRVQGFYVPQAR [GRR1]
protein stability index (doa10∆): 2.44 ± 0.078
protein stability index (pdr5∆): 2.4 ± 0.069
protein stability index (san1∆): 2.03 ± 0.09
protein stability index (ubr1∆): 3 ± 0.049

NVIITGSTSLIEGMEQR [ARP7]
protein stability index (doa10∆): 1.75 ± 0.06
protein stability index (pdr5∆): 2.49 ± 0.075
protein stability index (san1∆): 2.27 ± 0.065
protein stability index (ubr1∆): 2.13 ± 0.077

DGHYIEENSQGNILDFN [REC8]
protein stability index (doa10∆): 3.23 ± 0.11
protein stability index (pdr5∆): 2.67 ± 0.098
protein stability index (san1∆): 2.89 ± 0.065
protein stability index (ubr1∆): 2.81 ± 0.1

TDTSTTATAATNGNNAG [MED6]
protein stability index (doa10∆): 3.2 ± 0.29
protein stability index (pdr5∆): 3.06 ± 0.13
protein stability index (san1∆): 3.39 ± 0.091
protein stability index (ubr1∆): 3.29 ± 0.096

NVGLCITIYDLLTVEEG [RPC25]
protein stability index (doa10∆): 1.45 ± 0.091
protein stability index (pdr5∆): 1.26 ± 0.067
protein stability index (san1∆): 1.45 ± 0.16
protein stability index (ubr1∆): 1.57 ± 0.076

HFFKWIEFIVYHQLLSD [SRB8]
protein stability index (doa10∆): 1.45 ± 0.05
protein stability index (pdr5∆): 1.3 ± 0.046
protein stability index (san1∆): 2.03 ± 0.08
protein stability index (ubr1∆): 1.2 ± 0.041

KVDSPDDPFMTKSGATT [GAL11]
protein stability index (doa10∆): 2.51 ± 0.077
protein stability index (pdr5∆): 2.63 ± 0.071
protein stability index (san1∆): 2.59 ± 0.055
protein stability index (ubr1∆): 2.79 ± 0.045

FSVRTKDSNKDVVVEGL [RPL10]
protein stability index (doa10∆): 2.14 ± 0.051
protein stability index (pdr5∆): 2.32 ± 0.055
protein stability index (san1∆): 2.13 ± 0.073
protein stability index (ubr1∆): 2.77 ± 0.054

GGTNEDDFTDAIQFVKE [YCS4]
protein stability index (doa10∆): 2.35 ± 0.14
protein stability index (pdr5∆): 2.6 ± 0.15
protein stability index (san1∆): 3.39 ± 0.07
protein stability index (ubr1∆): 3.69 ± 0.19

AVLKKIQSKAVEQGYED [YCG1]
protein stability index (doa10∆): 3.05 ± 0.12
protein stability index (pdr5∆): 3.38 ± 0.092
protein stability index (san1∆): 3.08 ± 0.072
protein stability index (ubr1∆): 3.07 ± 0.084

EGIIKPISKHSKQAIYT [RPS25A]
protein stability index (doa10∆): 1.65 ± 0.065
protein stability index (pdr5∆): 2.03 ± 0.057
protein stability index (san1∆): 1.47 ± 0.095
protein stability index (ubr1∆): 1.72 ± 0.056

QAYEEIISSNENALIEL [YIL149C/MLP2]
protein stability index (doa10∆): 3.18 ± 0.064
protein stability index (pdr5∆): 3.07 ± 0.061
protein stability index (san1∆): 2.92 ± 0.071
protein stability index (ubr1∆): 3.23 ± 0.042

DKQYRTAVATLLKELSK [SMC3]
protein stability index (doa10∆): 2.49 ± 0.082
protein stability index (pdr5∆): 2.13 ± 0.084
protein stability index (san1∆): 3.06 ± 0.061
protein stability index (ubr1∆): 2.72 ± 0.071

PKSSPLKKNNYNSFPHS [SIR4]
protein stability index (doa10∆): 2.79 ± 0.099
protein stability index (pdr5∆): 3.08 ± 0.076
protein stability index (san1∆): 3.07 ± 0.046
protein stability index (ubr1∆): 3.06 ± 0.039

RRVPKELAVENPLAKTM [SEC65]
protein stability index (doa10∆): 2.99 ± 0.052
protein stability index (pdr5∆): 2.93 ± 0.042
protein stability index (san1∆): 2.47 ± 0.054
protein stability index (ubr1∆): 1.69 ± 0.026

LTEAVEDGPRPFKVFLD [RPL5]
protein stability index (doa10∆): 3.03 ± 0.071
protein stability index (pdr5∆): 3.11 ± 0.061
protein stability index (san1∆): 3.02 ± 0.052
protein stability index (ubr1∆): 3.23 ± 0.036

TSTVNRLNTVTRVHQLM [MCD1]
protein stability index (doa10∆): 3.22 ± 0.12
protein stability index (pdr5∆): 1.49 ± 0.06
protein stability index (san1∆): 2.21 ± 0.2
protein stability index (ubr1∆): 2.57 ± 0.094

SRSNFQGKHTKFENDEL [LRP1]
protein stability index (doa10∆): 3.28 ± 0.091
protein stability index (pdr5∆): 2.99 ± 0.085
protein stability index (san1∆): 3.02 ± 0.06
protein stability index (ubr1∆): 3.22 ± 0.064

CSDFVKILNLEKPLILA [NUT1]
protein stability index (doa10∆): 2.01 ± 0.097
protein stability index (pdr5∆): 1.39 ± 0.064
protein stability index (san1∆): 1.34 ± 0.17
protein stability index (ubr1∆): 1.08 ± 0.071

NSLSSNLSSLIVEINNV [YJL041W/NSP1]
protein stability index (doa10∆): 2.26 ± 0.037
protein stability index (pdr5∆): 2.58 ± 0.045
protein stability index (san1∆): 2.35 ± 0.051
protein stability index (ubr1∆): 2.41 ± 0.033

LRVDEVQGKNLLTNFHG [RPS1A]
protein stability index (doa10∆): 3.29 ± 0.067
protein stability index (pdr5∆): 3.42 ± 0.055
protein stability index (san1∆): 3.3 ± 0.047
protein stability index (ubr1∆): 3.26 ± 0.041

EFRSAAGQLALDLANSG [YDL116W/NUP84]
protein stability index (doa10∆): 2.79 ± 0.14
protein stability index (san1∆): 2.82 ± 0.14
protein stability index (ubr1∆): 3 ± 0.12

IKVEGAVGNLGNAVTVT [RPL22A]
protein stability index (doa10∆): 3.39 ± 0.14
protein stability index (pdr5∆): 3.18 ± 0.13
protein stability index (san1∆): 3.15 ± 0.083
protein stability index (ubr1∆): 3.06 ± 0.079

MTNLTYFLHLSVFNAEL [YCS4]
protein stability index (doa10∆): 1.62 ± 0.061
protein stability index (pdr5∆): 1.48 ± 0.047
protein stability index (san1∆): 1.87 ± 0.09
protein stability index (ubr1∆): 1.76 ± 0.073

FGHIMEDFQVLRLGRGI [YDL088C/ASM4]
protein stability index (doa10∆): 3.04 ± 0.066
protein stability index (pdr5∆): 2.96 ± 0.055
protein stability index (san1∆): 2.49 ± 0.068
protein stability index (ubr1∆): 2.96 ± 0.044

FNGAQLKAVTVEAGMIA [RPT5]
protein stability index (doa10∆): 2.73 ± 0.28
protein stability index (pdr5∆): 2.62 ± 0.15
protein stability index (ubr1∆): 2.03 ± 0.19

QLAVRAPKGQNTLILRG [RPL18A]
protein stability index (doa10∆): 2.86 ± 0.28

EIVWTSSLIKAGLDKGI [RPO31]
protein stability index (doa10∆): 1.92 ± 0.047
protein stability index (pdr5∆): 1.96 ± 0.061
protein stability index (san1∆): 2.54 ± 0.05
protein stability index (ubr1∆): 1.57 ± 0.057

LPVKHPELFESLGIAQP [RPT6]
protein stability index (doa10∆): 2.65 ± 0.074
protein stability index (pdr5∆): 3.01 ± 0.039
protein stability index (san1∆): 2.55 ± 0.077
protein stability index (ubr1∆): 2.73 ± 0.054

GIFLHGKIPTLKISLIQ [PRP8]
protein stability index (doa10∆): 2.26 ± 0.042
protein stability index (pdr5∆): 2.03 ± 0.035
protein stability index (san1∆): 1.79 ± 0.053
protein stability index (ubr1∆): 1.78 ± 0.029

LQVSEKDLFELERYYKE [ARP7]
protein stability index (doa10∆): 3.14 ± 0.085
protein stability index (pdr5∆): 3.23 ± 0.077
protein stability index (san1∆): 3.48 ± 0.14
protein stability index (ubr1∆): 3.46 ± 0.065

CITLDQLAVRAPKGQNT [RPL18A]
protein stability index (pdr5∆): 3.39 ± 0.2
protein stability index (san1∆): 2.94 ± 0.079
protein stability index (ubr1∆): 3.38 ± 0.095

VPSPTGEYVKEPEWVLE [RPO21]
protein stability index (doa10∆): 3 ± 0.11
protein stability index (pdr5∆): 3.07 ± 0.12
protein stability index (san1∆): 2.85 ± 0.28
protein stability index (ubr1∆): 3.15 ± 0.062

YEYAEHDLLQIIHFHSH [SSN3]
protein stability index (doa10∆): 2.31 ± 0.062
protein stability index (pdr5∆): 2.59 ± 0.054
protein stability index (san1∆): 2.5 ± 0.045
protein stability index (ubr1∆): 2.63 ± 0.04

RSGSNAAASLPSKKLKT [RPC82]
protein stability index (doa10∆): 2.71 ± 0.068
protein stability index (pdr5∆): 2.91 ± 0.078
protein stability index (san1∆): 2.71 ± 0.05
protein stability index (ubr1∆): 2.76 ± 0.033

KHLEDNTLLVTGPFKVN [RPL6B]
protein stability index (doa10∆): 3.03 ± 0.18
protein stability index (pdr5∆): 2.53 ± 0.16
protein stability index (san1∆): 3.08 ± 0.093
protein stability index (ubr1∆): 1.78 ± 0.072

PLQNNLPELWALLNFVL [SNF2]
protein stability index (doa10∆): 2.69 ± 0.051
protein stability index (pdr5∆): 2.64 ± 0.045
protein stability index (san1∆): 2.56 ± 0.057
protein stability index (ubr1∆): 2.46 ± 0.037

VKIIRKSETSGRYASYR [RPB5]
protein stability index (doa10∆): 3.09 ± 0.076
protein stability index (pdr5∆): 3.04 ± 0.05
protein stability index (san1∆): 3.01 ± 0.053
protein stability index (ubr1∆): 3.09 ± 0.045

KKACIIFFDEIDAVGGA [RPT1]
protein stability index (doa10∆): 2.39 ± 0.052
protein stability index (pdr5∆): 2.67 ± 0.054
protein stability index (san1∆): 2.81 ± 0.055
protein stability index (ubr1∆): 2.73 ± 0.038

PIDAGLNEAPFPEENII [MCD1]
protein stability index (doa10∆): 3.01 ± 0.069
protein stability index (pdr5∆): 2.88 ± 0.054
protein stability index (san1∆): 3.06 ± 0.033
protein stability index (ubr1∆): 2.96 ± 0.041

LESFQAVYNKLTGKQIV [RPS7A]
protein stability index (doa10∆): 1.68 ± 0.055
protein stability index (pdr5∆): 1.32 ± 0.044
protein stability index (san1∆): 1.28 ± 0.098
protein stability index (ubr1∆): 1.53 ± 0.052

ISAKDMGQGLCNNINKG [BRR2]
protein stability index (doa10∆): 3.13 ± 0.14
protein stability index (pdr5∆): 3.25 ± 0.22
protein stability index (san1∆): 3.12 ± 0.12
protein stability index (ubr1∆): 3.26 ± 0.24

VIDLEKIKFDESSKLMT [BRR2]
protein stability index (doa10∆): 1.27 ± 0.1
protein stability index (pdr5∆): 1.43 ± 0.086
protein stability index (san1∆): 1.18 ± 0.25
protein stability index (ubr1∆): 1.32 ± 0.053

KNEKLKFQETLLRQKIE [ISW2]
protein stability index (doa10∆): 1.36 ± 0.11
protein stability index (pdr5∆): 1.37 ± 0.13
protein stability index (san1∆): 1.16 ± 0.15
protein stability index (ubr1∆): 1.15 ± 0.071

IDGCVKIGDLGLARKFH [SSN3]
protein stability index (doa10∆): 2.98 ± 0.078
protein stability index (pdr5∆): 3.33 ± 0.08
protein stability index (san1∆): 3.14 ± 0.058
protein stability index (ubr1∆): 3.37 ± 0.043

YINVSRGTDIDRINYTE [SRB5]
protein stability index (ubr1∆): 3.02 ± 0.22

HKSGKLSVKIGNVVMDI [RPC53]
protein stability index (doa10∆): 1.53 ± 0.1
protein stability index (pdr5∆): 1.25 ± 0.073
protein stability index (san1∆): 1.07 ± 0.2
